In patent publication US20160312207A1 (Stanford University, published 2016):

T1: human RSPO3 (human, UniProt Q9BXY4 22-272, limits assumed)
T1 construct: Recombinant protein; also called R-spondin 3
T1 sequence (looked up): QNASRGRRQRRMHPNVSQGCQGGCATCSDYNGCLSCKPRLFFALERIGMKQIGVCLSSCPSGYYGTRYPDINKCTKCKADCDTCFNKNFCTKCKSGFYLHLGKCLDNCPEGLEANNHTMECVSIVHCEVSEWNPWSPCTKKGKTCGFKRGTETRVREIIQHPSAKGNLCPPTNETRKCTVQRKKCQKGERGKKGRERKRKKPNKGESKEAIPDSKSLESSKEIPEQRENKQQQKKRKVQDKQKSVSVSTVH


Legend:
human RSPO3 [1] = biological target: T1, human RSPO3; assay: Biacore (SPR)
human RSPO4 [2] = biological target: T2, human RSPO4 (human, UniProt Q2I0M5 20-234, limits assumed); assay: Biacore (SPR)
T2 construct: Recombinant protein; also called R-spondin 4
T2 sequence (Q2I0M5 20-234 limits assumed): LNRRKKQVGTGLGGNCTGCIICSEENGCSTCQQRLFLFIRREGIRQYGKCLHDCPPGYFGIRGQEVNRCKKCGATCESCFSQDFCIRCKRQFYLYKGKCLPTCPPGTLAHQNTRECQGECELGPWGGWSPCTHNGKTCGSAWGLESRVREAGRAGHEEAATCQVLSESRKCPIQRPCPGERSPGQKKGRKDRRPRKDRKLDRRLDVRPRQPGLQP

human RSPO1 [3] = biological target: T3, human RSPO1 (human, UniProt Q2MKA7 21-263, limits assumed); assay: Biacore (SPR)
T3 construct: Recombinant protein; also called R-spondin 1; recombinant R-spondin
T3 sequence (Q2MKA7 21-263 limits assumed): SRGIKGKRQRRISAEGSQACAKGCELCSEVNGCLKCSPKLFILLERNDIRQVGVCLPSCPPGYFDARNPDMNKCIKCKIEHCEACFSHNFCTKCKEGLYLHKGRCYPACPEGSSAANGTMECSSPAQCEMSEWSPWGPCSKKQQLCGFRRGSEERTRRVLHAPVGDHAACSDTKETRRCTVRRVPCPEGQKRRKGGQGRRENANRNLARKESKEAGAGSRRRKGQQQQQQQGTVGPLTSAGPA

human RSPO2 [4] = biological target: T4, human RSPO2 (human, UniProt Q6UXX9 22-243, limits assumed); assay: Biacore (SPR)
T4 construct: Recombinant protein; also called R-spondin 2; recombinant human RSPO2
T4 sequence (Q6UXX9 22-243 limits assumed): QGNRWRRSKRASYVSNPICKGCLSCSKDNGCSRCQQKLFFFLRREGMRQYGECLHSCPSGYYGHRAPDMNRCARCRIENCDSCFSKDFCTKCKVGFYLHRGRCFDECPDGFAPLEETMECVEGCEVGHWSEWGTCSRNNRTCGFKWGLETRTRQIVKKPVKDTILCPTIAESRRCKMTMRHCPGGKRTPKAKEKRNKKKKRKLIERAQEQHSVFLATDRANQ

human RSPO1 [5] = biological target: T3, human RSPO1; assay: Biacore (SPR); human RSPO1
human RSPO4 [6] = biological target: T2, human RSPO4; assay: Biacore (SPR); human RSPO4
human RSPO2 [7] = biological target: T4, human RSPO2; assay: Biacore (SPR); human RSPO2
human RSPO3 [8] = biological target: T1, human RSPO3; assay: Biacore (SPR); human RSPO3
human RSPO3 [9] = biological target: T1, human RSPO3; assay: Biacore (SPR), against ZNRF3-Fc ECD fusion tested in parallel
human RSPO2 [10] = biological target: T4, human RSPO2; assay: as above

Kd (human RSPO3 [1]) [nM]	Kd (human RSPO4 [2]) [nM]	Kd (human RSPO1 [3]) [nM]	Kd (human RSPO2 [4]) [nM]	Kd (human RSPO1 [5]) [nM]	Kd (human RSPO4 [6]) [nM]	Kd (human RSPO2 [7]) [nM]	Kd (human RSPO3 [8]) [nM]	fold stronger affinity than the ZNRF3-Fc ECD fusion (human RSPO3 [9]) [fold]	fold stronger affinity than the ZNRF3-Fc ECD fusion (human RSPO2 [10]) [fold]	Molecule
6.58	> 1000	381	12.8							ZNRF3-Fc ECD fusion (Fc fusion)
				53	142	0.00182	0.00145	~4500	~7000	soluble RNF43-Fc ECD fusion protein (Fc fusion, No linker between ECD and Fc is stated; also called RNF43 ECD-Fc fusion protein; RNF43 ECD) GFGHTGRVLAAAVESERSAEQKAVIRVIPLKMDPTGKLNLTLEGVFAGVAEVTPAEGKLMQSHPLYLCNASDDDNLEPGFISIVKLESPRRAPRPCLSLASKARMAGERGANAVLFDITEDRSAAEQLQQPLGLTKPVVLIWGSDAAKLMEFVYKNRKAYVWIELKEPPRRLEPRGPTIKPCPPCKCPAPNLLGGPSVFIFPPKIKDVLMISLSPIVTCVVVDVSEDDPDVQISWFVNNVEVHTAQTQTHREDYNSTLRVVSALPIQHQDWMSGKEFKCKVNNKDLPAPIERTISKPKGSVRAPQVYVLPPPEEEMTKKQVTLTCMVTDFMPEDIYVEWTNNGKTELNYKNTEPVLDSDGSYFMYSKLRVEKKNWVERNSYSCSVVHEGLHNHHTTKSFSRTPGK
